Data: the nanobody polyreactivity screen of Harvey et al. (2022)

Assay: yeast display, Sf9 membrane polyspecificity reagent, FACS + sequencing; frameworks hold sequencing errors
Summary of the method: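 Genes from sorted yeast were amplified by colony PCR, read by MiSeq 2 × 250 sequencing and filtered on CDR length. These cells carried a synthetic nanobody library in Saccharomyces cerevisiae BJ5465 and were sorted by FACS into low and high (top ~1%) gates on anti-HA and streptavidin fluorescence. Polyreactivity is labelled according to the gate of origin.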

Sequence	polyreactivity (PSR sort gate)
QVQLVESGAGLVQAGGSLSLSCAASGRIFDRYVMGWYRQAPGKERELVAAISDGGSTYYADSVKGRFTISRDNAKNTVYLQMNSLKPEDTAVYYCAAVRYNSRVSTTPSEMYYWGQGTQVTVSS	low polyreactivity
QVQLVESGAGLVQAGGSLSLSCAASVSILRFYAMGWYRQAPGKERELVAAISTRGGSTYYADSVKGRFTISRVNAKYTVYLQMNSLKPEDTAVYYCAKRWPQYTDYKPMYYWGQGTQLTVSS	high polyreactivity
QVQLVESGAGLVQAGGTLRLSCAASGRTRQYNDMGWYRQAPGKERELVAAMTWSGGLTYYADSVKGRFTISRDNAKNTVYLKMNCLKPEDTAVYYCAVDGGTPGALRRFNYWGQGTQVTVSS	high polyreactivity
QVQLVESGAGLVQAGVSLRLSCAASGRIFVVNAMGRYRHAPGKERELVAAISRGGSTNYADSVKGPFTISRDNAKNTVYLQMNSLKPEDTAVYYCNADGSSYWYPVPLDGGDYWGQGTLVTVSS	low polyreactivity
QVQLVESGAGLVQAPGSLRLSCAASGRTFPRNAMGRYRQAPGKERDLVATISLSGGSTYYADSVKGRFTISRDNAKNTVYLQMNSLKPEDSADYYCARTRNPWPTSFDYWGQGTQVTVSS	low polyreactivity
QVQLVESGAGLVQEGGRLRLRCAASGFTFMDNAMGCYRKAPGKETQLVAAISRSGGSTYYADSVKGRFTISRDNAKNTVYLQMKSLKPEDTEGFYCAAFLYRSQYSGFEYWGQGTQVTVSS	high polyreactivity
QVQLVESGAGLVQEGGSLRLSCAASGRTSGFNTMGRYRQAPGKETQLVAAISFSGGSTYYADSVKGRFTISRDNEKNTVYLQMNSLKPEDTEVYYCNALYRYLYRSGDYWGQGTQVSVSS	low polyreactivity
QVQLVESGAGLVQEGGSLRLSCAASGSIFQAYAMGWYRKAPGKERELVANISSGGSTNYADSVKGRFTISRDNAKNTVYLQMNSLKPEDTAVYYCAASRWIFVLTYEYDYWNRRDYWGQGTQVTVSS	low polyreactivity
QVQLVESGARLVQAGGSLRLSCAASGFIFRAYTMGWYRQAPGKERELVAAITSSGGRTYYADSVKGRFTISRDNAKNTVYLQMNSLKPEDTAVYYCATVDAKWKQFDYWGQGTQVTVSS	high polyreactivity
QVQLVESGARLVQAGGSLRLSCAASGLIFYGNAMGWYRQAPGKERELVAAISRRGGRTYYADSVKGRFTISRDNAENTVYLQKNSLKPEDTAVYYCAAQYSYPYYKVTLYYWGQGTQVTVSS	high polyreactivity
QVQLVESGEGLVQAGGSLRLSCAASGITFFRNTMGWYRHAPGKERELVAAISKSGDNTYYADSVKVRFTISRDNAKNTVYLQMNSLKPEDTAVYYCNKAYRKFYYGYDYWGQGTQVTVSS	high polyreactivity
QVQLVESGGAFVQAGGSLRLSCAASGIIFERNAMGWYRQAPGNERELVAAISGGGSTNYADSVKGRFTISRDNEMNTVYLQRISLKPDDTAVYYCAGKAARRRGYYYWGQGTQVTVSS	high polyreactivity
QVQLVESGGALVQAGGRLRLSCAASGSILVTNDMGLYRQAPGKDRELEAAICWSGGSTYYADSVKGRFTISRDNAKNSVYLQMNSLKPEDTAVYYCAAGLGFLFARQALEFDYWGQGTKVTVSS	low polyreactivity
QVQLVESGGALVQAGGRLRLSCAASGSTFTYNAMGWYRQAPGKERELVASISSGTTTYYADSVKGRFTISRDNAKNTVSLQMNSLKPEDTAVYDCAVDSWSRVQGWLAHNYDYWGQGTQVTVSS	low polyreactivity
QVQLVESGGALVQAGGSHRLSCAASGRIFAGNAMGWYRMAPGKEMELLAAISKSGGSTYYADSVKGRFTISRDNAKNTVYLQMNSLKAEDTAVSYCAKLYYPVSDQYDYYYWGPGTQVTVSS	low polyreactivity
QVQLVESGGALVQAGGSIRLSCAASGRIFLHYAMGWYRQAPGKERELVAAISSSGGSTYYADSVKGRFTISRDNAKNTVYLQMKSLKPEDTAVYYCAAAYPVKTTEGYYYWGQGTHVTVSS	high polyreactivity
QVQLVESGGALVQAGGSLRISCAASGLIITHYAMGWYRQAPGKEMELVAAISNGGSTNYADSEKGRFTISRDNAKNTVYLEMNSLKPEDTAVSFCNARPNKYYAYPATRGKYYYWGQATQVTVSS	low polyreactivity
QVQLVESGGALVQAGGSLRISCAASGLIIVRKAMGLYRQAPGKERELVAAIRWSGGSTYYADSVKGRFTISRDNGNNTVFLQMNRLKPEDTSVYYCAATGYGFDMDYWGQGTQVNVSS	low polyreactivity
QVQLVESGGALVQAGGSLRISCAASGRTLSAYAMGLYRQAPGKERELVAVISRSGGRTYYADSVKGRFTISRDNAKNTVYLQMNSLKQEDSAVYYCAAGSSRLRALYNYWGQGTQVNVSS	high polyreactivity
QVQLVESGGALVQAGGSLRLSCAASAFIFRINAMGWYRQAPGKERELVAAISGSGGRTYYADSVKGRFTISRDNAKNTVYLQMNSLKPVDTAVYYCARSSGYGFNYWGQGTQVTVSS	high polyreactivity
QVQLVESGGALVQAGGSLRLSCAASAGNFTGYAMGWSRQAPGKERELVATITSGGSTNYADSVKGRFTISRDNAKNSFYFQLNSLKPEDTAVYYCALDYIGDTPIWQYDYWGQGTQVTVSS	low polyreactivity
QVQLVESGGALVQAGGSLRLSCAASGFIFHYYAMGWYRQAPGKERELVAAISKTGGSTYYADSVKGRFTISRDNAKNTVYLQMNSLKPEDTAVYYCAVARSAYYRGNHWGQGTQVTVSS	high polyreactivity

Sequence	polyreactivity (PSR sort gate)
QVQLVESGGALVQAGGSLRLSCAASGGTFYTYAMGWYRQAPGKERELVATITRRGGSTYYADSVKGRFTISRDNAKNTVYLQMKSLKPEDTAVYYCAARSYISTRPIMGYWGQGTQVTVSS	high polyreactivity
QVQLVESGGALVQAGGSLRLSCAASGLTFIAYALGWYRQAPGKERELVASIDSGGGTNYADSVKGRFTISRDNAKNTVYLQMNSLKREDTAVYYCAAESPLYWVDDFESGWRYYYWGQGTHVTVSS	low polyreactivity
QVQLVESGGALVQAGGSLRLSCAASGNTFIPNAMGWYRQAPGKERELVAAIRASGGSTYYADSVKGRFTISRDNAKNTVYLQMNSLKPEDTAVYYCNADIWYKTYDYWGQGTQVTVSS	low polyreactivity
QVQLVESGGALVQAGGSLRLSCAASGRIFRAYAMGWYRQAPGKERELVAAISRSGGSTYYADSVKGRFTISRDNAKNTVYLQMNSLKPEDTAVYYCAAEYYFIDTGEYDYWGQGTQVSVSS	high polyreactivity
QVQLVESGGALVQAGGSLRLSCAASGRILRGNAMGWYRPAPGKERELVADINYSDGSTYYADSVKGRFTISRDNAKNTVYLQMNSLKPEDTAVYYCAKKNPLVFTSGMDYWGQGTQVTVSS	low polyreactivity
QVQLVESGGALVQAGGSLRLSCAASGRTFYFYTMGWYRQAPGKERDLVAAISWSGGSTYYADSVKGRFTISRDTAKNNFYLQMKRLKPEDTAVYYCAASSRWEQSKDQFYYWGQGTHVTVSS	low polyreactivity
QVQLVESGGALVQAGGSLRLSCAASGRTYRWYAMGWYRQAPGKESELVARIRGSGGSTYADSVKGRFTISRDNAKNTVNLEMNSLTPEDTAVYYCARKVTGRNGAQFYVSYYYWGQGTQVPVSS	low polyreactivity
QVQLVESGGALVQAGGSLRLSCAASGSIFDQYTMRWYRQAPGKDRELVAAIRFSGGSTSYADSVKGRFTISRDNAKNTVYLQMNSLKPDDTAVYYCNADSQPWRFGYWGQGTQVTVSS	low polyreactivity
QVQLVESGGALVQAGGSLRLSCAASGSIFYKYTMGWYRQAPGKERELVAAISRSGGSTYYADSVKGRFTISRDNAKNTVYLQMNSLKTEDTAVYYCATTGRVPGEYWGQGTQVTVSS	high polyreactivity
QVQLVESGGALVQAGGSLRLSCAASGSTFPTNAMGWYRQAPGKERELVAAITSSTGSTYYADSVKGRFTISRDNAKNTVYLQMNSLKPEDTAVYSCAKSKQWQRYLRGNYWGQGTQVTVSS	low polyreactivity
QVQLVESGGALVQAGGSLRLSCAASGSTFSWYAMGWYRQAPGKERELVAAITTRGGSTYYADSVKGRFTISRDNAKNTVYLQMTRLKPEDTAVYYCAADDGWDFGRGRYDYWGQGTQVTVSS	low polyreactivity
QVQLVESGGALVQAGGSLRLSCAASGSTFVTYAMGWYRQAPGKEREFVAAISWRGGRTYYADSVKGRFSISRDNAKNTVYLQMNSLKPEDTAVYYCAVRTLQRGKHDLGVDYWGQGTQVTVSS	high polyreactivity
QVQLVESGGALVQAGGSLRLSCAASGSTFYYYAMGWYRQAPGKEREFVAAISGGDGTTSYADSVKGRFTISRDNAKKTVYLQMNSLKPEDTAFYYCASPYTSYLYGYDYWGQGTQVTVSS	low polyreactivity
QVQLVESGGALVQAGGSLRLSCAASGSTLVTNAMGWYRKAPGKERELVAAITFSGGTTYYADSVKGRFTISRDNAKNTVYLQMNSLTPEDTAVYYCGAEIWLEYVGYDYWGQGTQVTVSS	high polyreactivity
QVQLVESGGALVQAGGSLRLSCAASGYIFDRYAMGWYRQAPGKEWELVAAISGRGGSTYYADSVKGRFTISRDNAKNTVYLQMNSLKPEDTAVYYCAAARSWHLYHRYDYWGQGTQVTVSS	high polyreactivity
QVQLVESGGALVQAGGSLRLSCSASGSLFIYYAIRWYRQAPGKERELVAAISISGARTYYADSVKGRFTNSRDNAKNTVYLQMNSLKPEDTAVYYCNVSSRRLRGLDYWGQVTQVTVSS	low polyreactivity
QVQLVESGGALVQAGGSLRLSSAASGLTFYYYAMGRYRQAPGKERELVAAITGSGGRTYYADSVKGRFTISRDNAKNNVYLQMNSLKPEDTAVYYCAASWPNYLYEYWGQGTQVTVSS	high polyreactivity
QVQLVESGGALVQAGGSLRLTSAASGFTFFRNAMRWYRQAPGKERELVAAINWSGGSTYYADSVKGRFTISRDNAKNTVYLQMHSLKPEDTAVYFCAADLSSTESDYWRQGTQVTVSS	high polyreactivity
QVQLVESGGALVQAGVSLRLSCSASGSTFTKYAIRWYRQAPGKERELVAAITRGGSTTYADSVKGRFTISRDNAKNTVYLQMNSLKPEDTAVYFCNAQYQSGYYTSYPERFDYRGQGTQVTVSS	low polyreactivity
QVQLVESGGCIVQAGGSLRFSCAASGFTFNRYAMGWYRQAPGKERELVAAITRRGGSTYYADSVKGRFTISRDNAKNTVYFQMNSLKPEDTAVYYCNVDFQAYGIPMDYWGQGTQVNVSS	high polyreactivity
QVQLVESGGCLDQAGGSLRLSSAASGRIFFGYAMGWYRQAPGKEREFVAAISSVGSTNYADSVKGRFTISRDNAKNTVYLQMNSLKPEDTAVYYCAAAPRSGGKYGSDGGDYWGQGTQVTVSS	low polyreactivity
